22 molecules from patent publication US20250333467A1 (TECTONIC OPERATING, published 2025) can be followed below.

Residue numbers refer to the chain shown, from its start. Like-named read-outs stand apart in the source and are kept apart here.

Assay in all cases: cell-based or functional assay
In assay [1] the target is T1, human RXFP1 (human, UniProt Q9HBX9 1-757).
T1 sequence (looked up): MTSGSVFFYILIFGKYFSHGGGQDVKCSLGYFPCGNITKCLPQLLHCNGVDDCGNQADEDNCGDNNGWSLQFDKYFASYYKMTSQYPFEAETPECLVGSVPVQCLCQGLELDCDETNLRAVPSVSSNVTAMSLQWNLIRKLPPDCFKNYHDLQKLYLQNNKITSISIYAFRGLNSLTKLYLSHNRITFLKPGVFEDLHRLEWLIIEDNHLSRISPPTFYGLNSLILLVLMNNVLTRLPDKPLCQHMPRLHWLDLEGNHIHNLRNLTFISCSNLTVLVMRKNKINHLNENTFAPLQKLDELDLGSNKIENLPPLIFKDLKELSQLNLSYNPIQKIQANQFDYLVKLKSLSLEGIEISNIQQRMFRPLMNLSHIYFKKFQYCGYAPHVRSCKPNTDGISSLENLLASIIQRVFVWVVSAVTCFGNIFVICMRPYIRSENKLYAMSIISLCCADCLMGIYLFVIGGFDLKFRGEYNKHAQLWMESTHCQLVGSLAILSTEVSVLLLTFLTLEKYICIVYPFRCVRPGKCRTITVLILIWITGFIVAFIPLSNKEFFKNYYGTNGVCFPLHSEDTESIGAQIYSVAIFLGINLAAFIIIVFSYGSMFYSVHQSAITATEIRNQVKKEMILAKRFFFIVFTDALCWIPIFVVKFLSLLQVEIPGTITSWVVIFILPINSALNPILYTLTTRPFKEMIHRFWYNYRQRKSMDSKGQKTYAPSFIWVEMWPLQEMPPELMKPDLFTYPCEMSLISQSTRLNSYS

Assay [2] has as its target T1, human RXFP1. This is another data set of the same source.
Assay [3] has as its target T2, rat RXFP1 (rat, UniProt Q6R6I6 1-758).
T2 sequence (looked up): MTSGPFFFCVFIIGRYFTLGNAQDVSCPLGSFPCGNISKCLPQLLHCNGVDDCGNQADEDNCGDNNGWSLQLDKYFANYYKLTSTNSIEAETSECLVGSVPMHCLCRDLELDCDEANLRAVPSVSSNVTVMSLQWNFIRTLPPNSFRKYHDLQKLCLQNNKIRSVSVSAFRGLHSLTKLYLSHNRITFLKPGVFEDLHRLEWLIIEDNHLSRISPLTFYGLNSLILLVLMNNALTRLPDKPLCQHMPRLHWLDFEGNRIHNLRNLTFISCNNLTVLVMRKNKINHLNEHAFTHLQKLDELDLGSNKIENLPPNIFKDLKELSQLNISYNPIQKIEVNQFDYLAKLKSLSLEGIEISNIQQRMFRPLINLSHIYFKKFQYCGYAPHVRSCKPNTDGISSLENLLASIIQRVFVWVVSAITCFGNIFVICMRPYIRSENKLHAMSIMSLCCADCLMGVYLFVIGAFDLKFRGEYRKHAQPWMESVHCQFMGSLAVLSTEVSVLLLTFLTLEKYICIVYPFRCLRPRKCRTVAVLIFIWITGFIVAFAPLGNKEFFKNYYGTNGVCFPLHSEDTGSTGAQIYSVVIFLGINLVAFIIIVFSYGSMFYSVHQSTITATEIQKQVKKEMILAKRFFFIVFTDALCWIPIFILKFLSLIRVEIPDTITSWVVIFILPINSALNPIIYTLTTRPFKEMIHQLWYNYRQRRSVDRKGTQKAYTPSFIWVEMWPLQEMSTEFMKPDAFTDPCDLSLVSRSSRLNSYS

The target in assay [4] is T1, human RXFP1. This is another data set of the same source.
Assay [5] addresses T1, human RXFP1. The source holds these as a separate data set.
In assay [6] the target is T2, rat RXFP1. This is another data set of the same source.

B1: SEQ ID NO: 317 (Fc fusion)
chain: DKTHTCPPCPAPEAAGGPSVFLFPPKPKDTLMISRTPEVTCVVVDVSHEDPEVKFNWYVDGVEVHNAKTKPREEQYNSTYRVVSVLTVLHQDWLNGKEYKCKVSNKALAAPIEKTISKAKGQPREPQVYTLPPSRDELTKNQVSLTCLVKGFYPSDIAVEWESNGQPENNYKTTPPVLDSDGSFFLYSKLTVDKSRWQQGNVFSCSVLHEALHSHYTQKSLSLSPGGGSDSWQEEVIKLCGRELVRAQIAICGKSTGGGEGGGEGGGEGRQLYSALANKCCHVGCTKRSLAQFC
For B1, the “Potency (cAMP, transient hRXFP1 in HEK293)” value (from here on “Potency”) with human RXFP1 [1] stood at 8 nM. In the assay with human RXFP1 [2], the “THP1 (endogenous RXFP1) cAMP EC50” value was 63 nM and the “Transient HEK293 hRXFP1 cAMP EC50” value came out at 38.2 nM. Further, in the assay with rat RXFP1 [3], the “Transient HEK293 rRXFP1 cAMP EC50” value is 31.2 nM.

B2: SEQ ID NO: 313 (Fc fusion)
chain: DKTHTCPPCPAPEAAGGPSVFLFPPKPKDTLMISRTPEVTCVVVDVSHEDPEVKFNWYVDGVEVHNAKTKPREEQYNSTYRVVSVLTVLHQDWLNGKEYKCKVSNKALAAPIEKTISKAKGQPREPQVYTLPPSRDELTKNQVSLTCLVKGFYPSDIAVEWESNGQPENNYKTTPPVLDSDGSFFLYSKLTVDKSRWQQGNVFSCSVLHEALHSHYTQKSLSLSPGKGGSDSWQEEVIKLCGRELVRAQIAICGKSTGGGEGGGEGGGEGRQLYSALANKCCHVGCTKRSLAQFC
For B2, the “Potency” value in the assay with human RXFP1 [1] amounted to 4.2 nM. In addition, in the assay with human RXFP1 [2], the “THP1 (endogenous RXFP1) cAMP EC50” value was 49 nM and the “Transient HEK293 hRXFP1 cAMP EC50” value worked out at 10 nM. The “Transient HEK293 rRXFP1 cAMP EC50” value in the assay with rat RXFP1 [3] stood at 15.1 nM.

B3: SEQ ID NO: 130 (Fc fusion)
chain: B2 chain with K227E, W233Y, G260E, E261G, G262S, G267E, E269G, H283K
Take B3: the “Potency” value with human RXFP1 [4] was determined as 24.6 nM.

B4: SEQ ID NO: 131 (Fc fusion)
chain: B2 chain with K227E, W233Y, G260E, E261G, G262S, G267S, E269G, H283Y
As to B4, the “Potency” value with human RXFP1 [4] amounted to 16.4 nM.

B5: SEQ ID NO: 129 (Fc fusion)
chain: B2 chain with K227E, W233Y, G260E, E261G, G262S, G267E, E269G, H283Y
B5: the “Potency” value with human RXFP1 [4] is 42.4 nM.

B6: SEQ ID NO: 132 (Fc fusion)
chain: B2 chain with K227E, W233Y, G260E, E261G, G262S, G267S, E269G, H283K
With B6, the “Potency” value in the assay with human RXFP1 [4] stood at 11.2 nM.

B7: SEQ ID NO: 496 (Fc fusion)
chain: DKTHTCPPCPAPEAAGGPSVFLFPPKPKDTLMISRTPEVTCVVVDVSHEDPEVKFNWYVDGVEVHNAKTKPREEQYNSTYRVVSVLTVLHQDWLNGKEYKCKVSNKALAAPIEKTISKAKGQPREPQVYTLPPSRDELTKNQVSLTCLVKGFYPSDIAVEWESNGQPENNYKTTPPVLDSDGSFFLYSKLTVDKSRWQQGNVFSCSVLHEALHSHYTQKSLSLSPGKGGSDSWKEEVIKLCGRELVRAQIAICGKSTASDAAGANANAGARQLYSALANKCCHVGCTKRSLARFC
As for B7, the “Potency” value with human RXFP1 [1] was determined as 0.2 nM. In addition, in the assay with human RXFP1 [2], the “THP1 (endogenous RXFP1) cAMP EC50” value amounted to 2 nM and the “Transient HEK293 hRXFP1 cAMP EC50” value amounted to 0.19 nM. In the assay with rat RXFP1 [3], the “Transient HEK293 rRXFP1 cAMP EC50” value was found to be 1.15 nM. For the same molecule, in the assay with human RXFP1 [5], the “EC50 for cAMP generation, recombinant human RXFP1 assay (average)” value came to 0.2 nM. In the assay with rat RXFP1 [6], the “EC50 for cAMP generation, recombinant rat RXFP1 assay (average)” value is 1 nM.

B8: SEQ ID NO: 124 (Fc fusion)
chain: B7 chain with K234Q, N265E, N267E, H283L, R293Q
For B8, the “Potency” value with human RXFP1 [4] is 20.8 nM.

B9: SEQ ID NO: 123 (Fc fusion)
chain: B7 chain with K234Q, N265E, N267E, H283Y, R293Q
In the case of B9, in the assay with human RXFP1 [4], the “Potency” value turned out to be 11.7 nM.

B10: SEQ ID NO: 104 (Fc fusion)
chain: B7 chain with K227E, K234Q, K255Q, N265Q, N267Q, R293Q
Turning to B10, in the assay with human RXFP1 [1], the “Potency” value worked out at 2.8 nM. In the assay with human RXFP1 [2], the “THP1 (endogenous RXFP1) cAMP EC50” value turned out to be 11 nM and the “Transient HEK293 hRXFP1 cAMP EC50” value was found to be 6.17 nM. Moreover, the “Transient HEK293 rRXFP1 cAMP EC50” value with rat RXFP1 [3] was 6.74 nM.

B11: SEQ ID NO: 126 (Fc fusion)
chain: B7 chain with K234Q, N265E, N267E, H283K, R293Q
For the molecule B11, the “Potency” value with human RXFP1 [4] was determined as 8.3 nM.

B12: SEQ ID NO: 122 (Fc fusion)
chain: B7 chain with W233I, K234Q, N265E, N267E, R293Q
As for B12, the “Potency” value in the assay with human RXFP1 [4] stood at 6.5 nM.

B13: SEQ ID NO: 125 (Fc fusion)
chain: B7 chain with K234Q, N265E, N267E, H283Q, R293Q
As to B13, the “Potency” value with human RXFP1 [4] was determined as 11.1 nM.

B14: SEQ ID NO: 93 (Fc fusion)
chain: B7 chain with K227E, K234Q, N265D, N267D, R293Q
For B14, the “Potency” value with human RXFP1 [1] turned out to be 11.1 nM. Also, in the assay with human RXFP1 [2], the “THP1 (endogenous RXFP1) cAMP EC50” value came out at 90 nM and the “Transient HEK293 hRXFP1 cAMP EC50” value is 19.1 nM. In the assay with rat RXFP1 [3], the “Transient HEK293 rRXFP1 cAMP EC50” value came out at 21.3 nM.

B15: SEQ ID NO: 118 (Fc fusion)
chain: B7 chain with K227E, K234Q, K255Q, N265Q, N267Q, R289Q, R293Q
On to B15, for which the “Potency” value with human RXFP1 [1] was 10.1 nM. In the assay with human RXFP1 [2], the “THP1 (endogenous RXFP1) cAMP EC50” value came to 200 nM and the “Transient HEK293 hRXFP1 cAMP EC50” value came to 25 nM. Further, the “Transient HEK293 rRXFP1 cAMP EC50” value with rat RXFP1 [3] worked out at 20.3 nM.

B16: SEQ ID NO: 95 (Fc fusion)
chain: B7 chain with K227E, K234Q, N265Q, N267D, R293Q
With B16, the “Potency” value in the assay with human RXFP1 [1] amounted to 6.8 nM. For the same molecule, in the assay with human RXFP1 [2], the “THP1 (endogenous RXFP1) cAMP EC50” value came to 26 nM and the “Transient HEK293 hRXFP1 cAMP EC50” value was 10.9 nM. In the assay with rat RXFP1 [3], the “Transient HEK293 rRXFP1 cAMP EC50” value is 13.5 nM.

B17: SEQ ID NO: 128 (Fc fusion)
chain: B7 chain with K227E, W233Y, K234Q, N265E, N267E, H283K, R293Q
Regarding B17, in the assay with human RXFP1 [4], the “Potency” value was determined as 23.2 nM.

B18: SEQ ID NO: 111 (Fc fusion)
chain: B7 chain with K227E, K234Q, N265Q, N267Q, R289Q, R293Q
For B18, the “Potency” value with human RXFP1 [1] came to 3.5 nM. Also, in the assay with human RXFP1 [2], the “THP1 (endogenous RXFP1) cAMP EC50” value is 80 nM and the “Transient HEK293 hRXFP1 cAMP EC50” value is 5.94 nM. Besides, the “Transient HEK293 rRXFP1 cAMP EC50” value with rat RXFP1 [3] came out at 6.74 nM.

B19: SEQ ID NO: 98 (Fc fusion)
chain: B7 chain with K227E, K234Q, K255Q, N265D, R293Q
As for B19, in the assay with human RXFP1 [1], the “Potency” value was found to be 8.8 nM. In the assay with human RXFP1 [2], the “THP1 (endogenous RXFP1) cAMP EC50” value turned out to be 100 nM and the “Transient HEK293 hRXFP1 cAMP EC50” value amounted to 21.5 nM. In addition, the “Transient HEK293 rRXFP1 cAMP EC50” value with rat RXFP1 [3] was determined as 29.1 nM.

B20: SEQ ID NO: 86 (Fc fusion)
chain: B7 chain with K234Q, N265D, N267D, R293Q
In the case of B20, the “Potency” value with human RXFP1 [1] was 4 nM. In the assay with human RXFP1 [2], the “THP1 (endogenous RXFP1) cAMP EC50” value turned out to be 30 nM and the “Transient HEK293 hRXFP1 cAMP EC50” value amounted to 7.46 nM. In addition, the “Transient HEK293 rRXFP1 cAMP EC50” value with rat RXFP1 [3] was found to be 24.5 nM.

B21: SEQ ID NO: 91 (Fc fusion)
chain: B7 chain with K227E, K234Q, N265D, R293Q
In the case of B21, in the assay with human RXFP1 [1], the “Potency” value was found to be 3.9 nM. Besides, in the assay with human RXFP1 [2], the “THP1 (endogenous RXFP1) cAMP EC50” value came to 30 nM and the “Transient HEK293 hRXFP1 cAMP EC50” value is 10.2 nM. In addition, the “Transient HEK293 rRXFP1 cAMP EC50” value in the assay with rat RXFP1 [3] was 12.4 nM.

B22: SEQ ID NO: 127 (Fc fusion)
chain: B7 chain with K227E, W233Y, K234Q, N265E, N267E, H283Y, R293Q
In the case of B22, the “Potency” value in the assay with human RXFP1 [4] was 32 nM.
